Source: the Human Domainome abundance scans (Beltran et al. 2025)
± gives the uncertainty stated by the source.

Test: abundance fitness (aPCA) (normalised: wild type 0, dead -1); higher = more abundant; growth selection in yeast, the domain comes from the species named
Conditions: Homo sapiens
“Lipoamide acyltransferase component of branched-chain alpha-keto acid dehydrogenase complex, mitochondrial K211P, P11182” gave an abundance fitness of -0.093 ± 0.048. With “Lipoamide acyltransferase component of branched-chain alpha-keto acid dehydrogenase complex, mitochondrial E203A, P11182” the abundance fitness was -0.041 ± 0.042. Substance “Lipoamide acyltransferase component of branched-chain alpha-keto acid dehydrogenase complex, mitochondrial G198P, P11182” has an abundance fitness of -0.776 ± 0.097. With “Lipoamide acyltransferase component of branched-chain alpha-keto acid dehydrogenase complex, mitochondrial S189C, P11182” the abundance fitness was -0.111 ± 0.071. Substance “Lipoamide acyltransferase component of branched-chain alpha-keto acid dehydrogenase complex, mitochondrial Y208V, P11182” has an abundance fitness of -0.02 ± 0.039. With “Lipoamide acyltransferase component of branched-chain alpha-keto acid dehydrogenase complex, mitochondrial Q212R, P11182” the abundance fitness was 0.085 ± 0.042. In the case of “Lipoamide acyltransferase component of branched-chain alpha-keto acid dehydrogenase complex, mitochondrial E210C, P11182”, the abundance fitness is reported as -0.048 ± 0.053. With “Lipoamide acyltransferase component of branched-chain alpha-keto acid dehydrogenase complex, mitochondrial G198K, P11182” the abundance fitness was -0.406 ± 0.18. Substance “Lipoamide acyltransferase component of branched-chain alpha-keto acid dehydrogenase complex, mitochondrial Q212T, P11182” has an abundance fitness of 0.017 ± 0.06. With “Lipoamide acyltransferase component of branched-chain alpha-keto acid dehydrogenase complex, mitochondrial N207V, P11182” the abundance fitness was -0.11 ± 0.042. Work on “Lipoamide acyltransferase component of branched-chain alpha-keto acid dehydrogenase complex, mitochondrial L209V, P11182” yielded an abundance fitness of 0.006 ± 0.039. In the case of “Lipoamide acyltransferase component of branched-chain alpha-keto acid dehydrogenase complex, mitochondrial V177A, P11182”, the abundance fitness is reported as 0.038 ± 0.04. Work on “Lipoamide acyltransferase component of branched-chain alpha-keto acid dehydrogenase complex, mitochondrial N207F, P11182” yielded an abundance fitness of -0.339 ± 0.091. Substance “Lipoamide acyltransferase component of branched-chain alpha-keto acid dehydrogenase complex, mitochondrial L209S, P11182” has an abundance fitness of -0.026 ± 0.041. “Lipoamide acyltransferase component of branched-chain alpha-keto acid dehydrogenase complex, mitochondrial Y208T, P11182” gave an abundance fitness of -0.073 ± 0.074. In the case of “Lipoamide acyltransferase component of branched-chain alpha-keto acid dehydrogenase complex, mitochondrial R178M, P11182”, the abundance fitness is reported as -0.035 ± 0.048. With “Lipoamide acyltransferase component of branched-chain alpha-keto acid dehydrogenase complex, mitochondrial S194V, P11182” the abundance fitness was -0.864 ± 0.064. “Lipoamide acyltransferase component of branched-chain alpha-keto acid dehydrogenase complex, mitochondrial V191S, P11182” gave an abundance fitness of -0.593 ± 0.054. Work on “Lipoamide acyltransferase component of branched-chain alpha-keto acid dehydrogenase complex, mitochondrial I205L, P11182” yielded an abundance fitness of -0.086 ± 0.037. Nanos homolog 2 K82R, P60321 showed an abundance fitness of -0.243 ± 0.069.
